According to patent US20220267435A1:

Target: CD19 (UniProt P15391)
Experiment: cell-based or functional assay

Sequence of UniProt P15391 (P15391 20-556 limits assumed): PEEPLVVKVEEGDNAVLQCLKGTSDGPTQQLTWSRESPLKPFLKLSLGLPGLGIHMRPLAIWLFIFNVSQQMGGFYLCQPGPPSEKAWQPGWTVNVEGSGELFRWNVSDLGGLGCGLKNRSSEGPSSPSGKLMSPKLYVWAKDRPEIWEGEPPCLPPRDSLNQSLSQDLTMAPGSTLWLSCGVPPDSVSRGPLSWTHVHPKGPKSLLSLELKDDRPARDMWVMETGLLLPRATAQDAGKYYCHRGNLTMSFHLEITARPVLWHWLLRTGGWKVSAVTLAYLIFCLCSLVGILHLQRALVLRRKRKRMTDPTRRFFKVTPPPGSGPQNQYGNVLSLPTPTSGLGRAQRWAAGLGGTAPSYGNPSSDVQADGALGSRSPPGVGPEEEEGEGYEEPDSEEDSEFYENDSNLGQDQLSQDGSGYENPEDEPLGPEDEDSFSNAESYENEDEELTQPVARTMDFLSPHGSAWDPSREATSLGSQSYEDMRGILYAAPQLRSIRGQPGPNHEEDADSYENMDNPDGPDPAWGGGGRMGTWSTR

**Q.** For BG-conjugated FMC63 antibody, which FMC63-BG concentration at the peak of SNAP-synNotch activation (TagBFP) is on record?
**A.** 0.25 µg/mL

**Q.** And the FMC63-BG concentration at which SNAP-synNotch activation is completely inhibited (hook effect)?
**A.** 10 µg/mL

**Q.** And the TagBFP MFI; 0.01 million SNAP-synNotch cells, 0.01 million Raji cells, 0.1 µg/mL FMC63-BG, 48 h?
**A.** 1820 MFI

**Q.** What about the TagBFP MFI; 0.01 million SNAP-synNotch cells, 0.01 million Raji cells, 1.0 µg/mL FMC63-BG, 48 h of the same substance?
**A.** 806 MFI

**Q.** And the TagBFP MFI; 0.01 million SNAP-synNotch cells, 0.1 million Raji cells, 0.1 µg/mL FMC63-BG, 48 h?
**A.** 3400 MFI

**Q.** What about the TagBFP MFI; 0.01 million SNAP-synNotch cells, 0.1 million Raji cells, 1.0 µg/mL FMC63-BG, 48 h of the same substance?
**A.** 2470 MFI

**Q.** And the TagBFP MFI; 0.01 million SNAP-synNotch cells, 0.5 million Raji cells, 0.1 µg/mL FMC63-BG, 48 h?
**A.** 1810 MFI

**Q.** What about the TagBFP MFI; 0.01 million SNAP-synNotch cells, 0.5 million Raji cells, 1.0 µg/mL FMC63-BG, 48 h of the same substance?
**A.** 5350 MFI

**Q.** What about the TagBFP MFI; 0.01 million SNAP-synNotch cells, 1 million Raji cells, 0.1 µg/mL FMC63-BG, 48 h of the same substance?
**A.** 1520 MFI

**Q.** What about the TagBFP MFI; 0.01 million SNAP-synNotch cells, 1 million Raji cells, 1.0 µg/mL FMC63-BG, 48 h of the same substance?
**A.** 4430 MFI

**Q.** What about the TagBFP MFI; 0.1 million SNAP-synNotch cells, 0.01 million Raji cells, 0.1 µg/mL FMC63-BG, 48 h of the same substance?
**A.** 1020 MFI

**Q.** And the TagBFP MFI; 0.1 million SNAP-synNotch cells, 0.01 million Raji cells, 1.0 µg/mL FMC63-BG, 48 h?
**A.** 984 MFI

**Q.** What about the TagBFP MFI; 0.1 million SNAP-synNotch cells, 0.1 million Raji cells, 0.1 µg/mL FMC63-BG, 48 h of the same substance?
**A.** 2540 MFI

**Q.** And the TagBFP MFI; 0.1 million SNAP-synNotch cells, 0.1 million Raji cells, 1.0 µg/mL FMC63-BG, 48 h?
**A.** 2260 MFI

**Q.** And the TagBFP MFI; 0.1 million SNAP-synNotch cells, 0.5 million Raji cells, 0.1 µg/mL FMC63-BG, 48 h?
**A.** 1940 MFI

**Q.** What about the TagBFP MFI; 0.1 million SNAP-synNotch cells, 0.5 million Raji cells, 1.0 µg/mL FMC63-BG, 48 h of the same substance?
**A.** 4570 MFI

**Q.** And the TagBFP MFI; 0.1 million SNAP-synNotch cells, 1 million Raji cells, 0.1 µg/mL FMC63-BG, 48 h?
**A.** 1180 MFI

**Q.** What about the TagBFP MFI; 0.1 million SNAP-synNotch cells, 1 million Raji cells, 1.0 µg/mL FMC63-BG, 48 h of the same substance?
**A.** 4220 MFI

**Q.** What about the TagBFP MFI; 0.5 million SNAP-synNotch cells, 0.01 million Raji cells, 0.1 µg/mL FMC63-BG, 48 h of the same substance?
**A.** 732 MFI

**Q.** And the TagBFP MFI; 0.5 million SNAP-synNotch cells, 0.01 million Raji cells, 1.0 µg/mL FMC63-BG, 48 h?
**A.** 667 MFI

**Q.** What about the TagBFP MFI; 0.5 million SNAP-synNotch cells, 0.1 million Raji cells, 0.1 µg/mL FMC63-BG, 48 h of the same substance?
**A.** 1570 MFI

**Q.** What about the TagBFP MFI; 0.5 million SNAP-synNotch cells, 0.1 million Raji cells, 1.0 µg/mL FMC63-BG, 48 h of the same substance?
**A.** 1490 MFI

**Q.** What about the TagBFP MFI; 0.5 million SNAP-synNotch cells, 0.5 million Raji cells, 0.1 µg/mL FMC63-BG, 48 h of the same substance?
**A.** 1120 MFI

**Q.** What about the TagBFP MFI; 0.5 million SNAP-synNotch cells, 0.5 million Raji cells, 1.0 µg/mL FMC63-BG, 48 h of the same substance?
**A.** 2680 MFI

**Q.** What about the TagBFP MFI; 0.5 million SNAP-synNotch cells, 1 million Raji cells, 0.1 µg/mL FMC63-BG, 48 h of the same substance?
**A.** 955 MFI

**Q.** And the TagBFP MFI; 0.5 million SNAP-synNotch cells, 1 million Raji cells, 1.0 µg/mL FMC63-BG, 48 h?
**A.** 2880 MFI

**Q.** And the TagBFP MFI; 1 million SNAP-synNotch cells, 0.01 million Raji cells, 0.1 µg/mL FMC63-BG, 48 h?
**A.** 550 MFI

**Q.** And the TagBFP MFI; 1 million SNAP-synNotch cells, 0.01 million Raji cells, 1.0 µg/mL FMC63-BG, 48 h?
**A.** 519 MFI

**Q.** And the TagBFP MFI; 1 million SNAP-synNotch cells, 0.1 million Raji cells, 0.1 µg/mL FMC63-BG, 48 h?
**A.** 1160 MFI

**Q.** What about the TagBFP MFI; 1 million SNAP-synNotch cells, 0.1 million Raji cells, 1.0 µg/mL FMC63-BG, 48 h of the same substance?
**A.** 1220 MFI

**Q.** What about the TagBFP MFI; 1 million SNAP-synNotch cells, 0.5 million Raji cells, 0.1 µg/mL FMC63-BG, 48 h of the same substance?
**A.** 979 MFI

**Q.** What about the TagBFP MFI; 1 million SNAP-synNotch cells, 0.5 million Raji cells, 1.0 µg/mL FMC63-BG, 48 h of the same substance?
**A.** 1810 MFI

**Q.** And the TagBFP MFI; 1 million SNAP-synNotch cells, 1 million Raji cells, 0.1 µg/mL FMC63-BG, 48 h?
**A.** 748 MFI

**Q.** And the TagBFP MFI; 1 million SNAP-synNotch cells, 1 million Raji cells, 1.0 µg/mL FMC63-BG, 48 h?
**A.** 1970 MFI

**Q.** What about the lowest FMC63-BG concentration with significant SNAP-synNotch activation (TagBFP) of the same substance?
**A.** 0.04 µg/mL
